Measurements reported in doi:10.1101/2024.08.09.607165.

Key:
[1] = biological target: TraT encoded by pKpQIL (TraT_(pKpQIL)), mature protein C36-L258 (K. pneumoniae (plasmid pKpQIL)); assay: cryo-EM structure
[2] = biological target: TraT encoded by the F plasmid derivative pOX38 (TraTF), mature protein C21-L244 (E. coli (F plasmid, pOX38)); assay: cryo-EM structure

## TraT encoded by pKpQIL (TraT_(pKpQIL)), mature protein C36-L258 (natural protein)
[1]
  stoichiometry N: 10

## TraT encoded by the F plasmid derivative pOX38 (TraTF), mature protein C21-L244 (natural protein)
[2]
  stoichiometry N: 10
